Data published in paper PMC11077437, “Scrutiny of chimeric antigen receptor activation by the extracellular domain: experience with single domain antibodies targeting multiple myeloma cells highlights the need for case-by-case optimization” (Frontiers in Immunology, 2024).

Assays:
Experiment in all cases: flow cytometry on cells; 2D3 cells with a VHH-CAR incubated with biotinylated CS1 antigen, then PE-coupled streptavidin
Conditions in all cases: one partner purified
[1] = target: T1, VHH-2 CAR on 2D3 reporter T cells (llama | human)
T1 construct: as the VHH of m1; cloned by PstI/BstEII from pHEN6c; hinge region derived from human IgG4; transmembrane and intracellular co-stimulatory domain derived from human CD28; also called 2D3-2; VHH-CAR with VHH-2; source: 2D3 reporter T cells, lentivirally transduced, sorted, on cells

[2] = target: T2, VHH-6 CAR on 2D3 reporter T cells (llama | human)
T2 construct: as the VHH of m2; cloned by PstI/BstEII from pHEN6c; hinge region derived from human IgG4; transmembrane and intracellular co-stimulatory domain derived from human CD28; also called 2D3-6; VHH-CAR with VHH-6; source: 2D3 reporter T cells, lentivirally transduced, sorted, on cells

[3] = target: T3, VHH-17 CAR on 2D3 reporter T cells (llama | human)
T3 construct: as the VHH of m3; cloned by PstI/BstEII from pHEN6c; hinge region derived from human IgG4; transmembrane and intracellular co-stimulatory domain derived from human CD28; also called 2D3-17; VHH-CAR with VHH-17; source: 2D3 reporter T cells, lentivirally transduced, sorted, on cells

[4] = target: T4, VHH-29 CAR on 2D3 reporter T cells (llama | human)
T4 construct: as the VHH of m7; cloned by PstI/BstEII from pHEN6c; hinge region derived from human IgG4; transmembrane and intracellular co-stimulatory domain derived from human CD28; also called 2D3-29; VHH-CAR with VHH-29; source: 2D3 reporter T cells, lentivirally transduced, sorted, on cells

[5] = target: T5, VHH-53 CAR on 2D3 reporter T cells (llama | human)
T5 construct: as the VHH of m10; cloned by PstI/BstEII from pHEN6c; hinge region derived from human IgG4; transmembrane and intracellular co-stimulatory domain derived from human CD28; also called 2D3-53; VHH-CAR with VHH-53; source: 2D3 reporter T cells, lentivirally transduced, sorted, on cells

[6] = target: T6, VHH-57 CAR on 2D3 reporter T cells (llama | human)
T6 construct: as the VHH of m12; cloned by PstI/BstEII from pHEN6c; hinge region derived from human IgG4; transmembrane and intracellular co-stimulatory domain derived from human CD28; also called 2D3-57; VHH-CAR with VHH-57; source: 2D3 reporter T cells, lentivirally transduced, sorted, on cells

[7] = target: T7, VHH-61 CAR on 2D3 reporter T cells (llama | human)
T7 construct: as the VHH of m13; cloned by PstI/BstEII from pHEN6c; hinge region derived from human IgG4; transmembrane and intracellular co-stimulatory domain derived from human CD28; also called 2D3-61; VHH-CAR with VHH-61; source: 2D3 reporter T cells, lentivirally transduced, sorted, on cells

[8] = target: T8, VHH-63 CAR on 2D3 reporter T cells (llama | human)
T8 construct: as the VHH of m14; cloned by PstI/BstEII from pHEN6c; hinge region derived from human IgG4; transmembrane and intracellular co-stimulatory domain derived from human CD28; also called 2D3-63; VHH-CAR with VHH-63; source: 2D3 reporter T cells, lentivirally transduced, sorted, on cells

[9] = target: T9, VHH-71 CAR on 2D3 reporter T cells (llama | human)
T9 construct: as the VHH of m16; cloned by PstI/BstEII from pHEN6c; hinge region derived from human IgG4; transmembrane and intracellular co-stimulatory domain derived from human CD28; also called 2D3-71; VHH-CAR with VHH-71; source: 2D3 reporter T cells, lentivirally transduced, sorted, on cells

[10] = target: T10, VHH-73 CAR on 2D3 reporter T cells (llama | human)
T10 construct: as the VHH of m17; cloned by PstI/BstEII from pHEN6c; hinge region derived from human IgG4; transmembrane and intracellular co-stimulatory domain derived from human CD28; also called 2D3-73; VHH-CAR with VHH-73; source: 2D3 reporter T cells, lentivirally transduced, sorted, on cells

Measured: binding result

T3 sequence (heavy, as listed by the source): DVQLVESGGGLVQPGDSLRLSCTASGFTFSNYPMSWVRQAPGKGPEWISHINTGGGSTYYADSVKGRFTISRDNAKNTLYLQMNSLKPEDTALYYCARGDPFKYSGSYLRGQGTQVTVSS
T2 sequence (heavy, as listed by the source): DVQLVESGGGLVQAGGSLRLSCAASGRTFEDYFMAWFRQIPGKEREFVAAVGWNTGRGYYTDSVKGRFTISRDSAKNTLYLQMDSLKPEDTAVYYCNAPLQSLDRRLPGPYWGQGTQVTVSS
T1 sequence (heavy, as listed by the source): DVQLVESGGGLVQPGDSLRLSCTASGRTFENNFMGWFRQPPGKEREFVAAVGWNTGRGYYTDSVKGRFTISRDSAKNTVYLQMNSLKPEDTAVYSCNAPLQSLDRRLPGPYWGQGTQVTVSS

B1: biotinylated recombinant human CS1 (CS1-(his)C-PEG4-biotin) (domain or fragment, UniProt Q9NQ25 23-226, looked up)
chain: SGPVKELVGSVGGAVTFPLKSKVKQVDSIVWTFNTTPLVTIQPEGGTIIVTQNRNRERVDFPDGGYSLKLSKLKKNDSGIYYVGIYSSSLQQPSTQEYVLHVYEHLSKPKVTMGLQSNKNGTCVTNLTCCMEHGEEDVIYTWKALGQAANESHNGSILPISWRWGESDMTFICVARNPVSRNFSSPILARKLCEGAADDPDSSM
modifications: PEG4-biotin
notes: CS1 (SLAMF7, CD319), human, the extracellular portion, biotinylated variant; also called biotinylated CS1 antigen; biotinylated CS1 protein; source: custom-produced by U Protein Express
binds: all assays above
